From paper PMC3154745 (Chembiochem : a European journal of chemical biology, 2011)
Residue numbers refer to the chain shown, from its start. In names and notes the source's numbering stands. Where two headings read alike, the source gives them in different places. Primed or numbered codes have the meaning given here. No end group written: not given here. fluorescein″ = fluorescein label at the N-terminus of the peptide; fluorescein = fluorescein group at the N-terminus

T1: HP1a-CSD I191E (residues 131-206) (D. melanogaster, UniProt P05205 131-206, I191E)
T1 sequence (looked up): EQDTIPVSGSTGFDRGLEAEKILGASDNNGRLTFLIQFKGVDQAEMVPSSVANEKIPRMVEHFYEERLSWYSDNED

T2: HP1a-CSD A174E (residues 131-206) (D. melanogaster, UniProt P05205 131-206, A174E)
T2 sequence (looked up): T1 sequence (looked up) with A44E, E61I

B1: HP1a-CSD (residues 131-206), wild type (domain or fragment, D. melanogaster, UniProt P05205 131-206, looked up)
chain: T1 sequence (looked up) with E61I
B2: HP1a-CSD E195Q (residues 131-206) (domain or fragment, D. melanogaster, UniProt P05205 131-206, looked up)
chain: T1 sequence (looked up) with E61I, E65Q
B3: HP1a-CSD S199E S202E double mutant (residues 131-206) (domain or fragment, D. melanogaster, UniProt P05205 131-206, looked up)
chain: T1 sequence (looked up) with E61I, S69E, S72E
B4: HP1a-CSD W200A (residues 131-206) (domain or fragment, D. melanogaster, UniProt P05205 131-206, looked up)
chain: T1 sequence (looked up) with E61I, W70A
B5: HP1a-CSDΔ204 (residues 131-203) (domain or fragment, D. melanogaster, UniProt P05205 131-203, looked up)
chain: EQDTIPVSGSTGFDRGLEAEKILGASDNNGRLTFLIQFKGVDQAEMVPSSVANEKIPRMVIHFYEERLSWYSD

Tests used:
[1] = molecular target: the molecule itself; assay: AUC
[2] = molecular target: the molecule itself; assay: AUC; remark: listed apart in the source
[3] = molecular target: B1; assay: fluorescence polarisation
[4] = molecular target: the molecule itself; assay: SEC
[5] = molecular target: the molecule itself; assay: AUC; remark: listed apart in the source
[6] = molecular target: B1; assay: fluorescence polarisation; remark: listed apart in the source
[7] = molecular target: B3; assay: fluorescence polarisation
[8] = molecular target: B2; assay: fluorescence polarisation
[9] = molecular target: T1, HP1a-CSD I191E (residues 131-206); assay: fluorescence polarisation
[10] = molecular target: B5; assay: fluorescence polarisation
[11] = molecular target: T2, HP1a-CSD A174E (residues 131-206); assay: fluorescence polarisation
[12] = molecular target: B4; assay: fluorescence polarisation
[13] = molecular target: B1; assay: NMR titration

For B1, the Kd [1] was 1.6 ± 0.4 µM and the Kd [2] was 3 ± 0.2 µM.

{fluorescein″}-PATTSPLVVLSNQLPLNSVAASY [AF10 peptide, N-terminal fluorescein]: binds [3].

{fluorescein″}-SEGRRLYPLLPRISPQTALSIVANDLAESD [CG15356 peptide, N-terminal fluorescein]: binds [3].

In the case of B2, the Kd [2] is reported as 4.3 ± 0.4 µM.

In the case of B3, the Kd [2] is reported as 19 ± 1 µM.

For B4, the “stoichiometry N” value [4] was 2 and the Kd [5] was 5.8 ± 0.6 µM.

fluorescein-QNISPRKLSVKINRRPYNKWLR [HP2 peptide Cys to Ser mutant (LSVKI), N-terminal fluorescein] was tested, and the Kd [6] was 0.3 ± 0.02 µM, the Kd [7] was 0.044 ± 0.007 µM and the Kd [8] was 3.7 ± 0.4 µM. For the same binder, the Kd [9] was over 400 µM, the Kd [10] was 4.9 ± 0.6 µM and the Kd [11] was 1.26 ± 0.12 µM. The Kd [12] was over 500 µM.

With {fluorescein″}-QNISPRKLCVKINRRPYNKWLR [HP2 peptide wild type (LCVKI), N-terminal fluorescein] the Kd [6] was 0.14 ± 0.07 µM.

fluorescein-TSRGSGDPRVKVFRGSSSGDY [PIWI peptide, N-terminal fluorescein] showed a Kd [6] of 20 ± 0.5 µM, a Kd [7] of 1.7 ± 0.1 µM and a Kd [8] of 97 ± 12 µM. It also gave a Kd [9] of over 2000 µM, a Kd [10] of 60 ± 2 µM and a Kd [11] of 101 ± 6 µM. The Kd [12] was over 2000 µM.

TSRGSGDPRVKVFRGSSSGDY [PIWI peptide as used in NMR]: binds [13].

With B5 the Kd [2] was 2 ± 0.2 µM.
